According to patent publication US5972678A, “Animal 2-5A dependent RNases” (Cleveland Clinic Foundation, priority 1995, dated 1999):

Assays:
2-5A-dependent RNase = conditions: cited from earlier work
poly(U) = test: ribonuclease assay with 2-5A-cellulose, poly(U) substrate; format: biochemical
Procedure: (§1) FIG. 5B is reticulocyte lysate pretreated to remove endogeous 2-5A-dependent RNase and is incubated in the absence of added mRNA (.box-solid.), in the presence of human 2-5A-dependent RNase mRNA without inhibitor (.smallcircle., .quadrature.) or in the presence of both 2-5A-dependent RNase mRNA and cycloheximide (50 μg per ml (.circle-solid.). See Example. Subsequently, the recombinant 2-5A-dependent RNase (or controls) is adsorbed to 2-5A-cellulose and ribonuclease assays are performed after extensive washing of the matrix to reduce general nuclease activity. Radiolabeled substrate RNA was either poly(U) (.smallcircle., .circle-solid., .box-solid.) or poly(C) (.quadrature.).
(§2) Ribonuclease assays with recombinant 2-5A-dependent RNase are performed after immobilizing and purifying the translation product on the activating affinity matrix, 2-5A-cellulose. It was previously shown that murine L cell 2-5A-dependent RNase bound to 2-5A-cellulose, resulting in ribonuclease activity against poly(U) but not poly(c). […]
(§3) Briefly, lysates are adsorbed to about […] of 2-5A-cellulose on ice for about two hours. […] The matrix is then incubated with poly(U)-[^32 P]Cp or poly(C)-[^32 P]Cp (both at about 16 μM in nucleotide equivalents) at about 30° C. and the levels of acid-precipitable radioactive RNA are determined by filtration on glass-fiber filters.

poly(C) = test: ribonuclease assay with 2-5A-cellulose, poly(C) substrate; format: biochemical; conditions: isolated on 2-5A-cellulose
Procedure: as §1, §2, §3

Molecule: Nc1ncnc2c1ncn2[C@@H]1O[C@H](COP(=O)(O)OP(=O)(O)OP(=O)(O)O)[C@@H](O)[C@H]1O [ATP]
- stimulatory effect on 2-5A-dependent RNase activity (2-5A-dependent RNase): two-fold

B1: recombinant human 2-5A-dependent RNase: full-length human 2-5A-dependent RNase, amino acids 1-741 in Table I, produced in vitro in reticulocyte lysate (protein, UniProt Q05823 1-741, looked up)
chain: MESRDHNNPQEGPTSSSGRRAAVEDNHLLIKAVQNEDVDLVQQLLEGGANVNFQEEEGGWTPLHNAVQMSREDIVELLLRHGADPVLRKKNGATPFILAAIAGSVKLLKLFLSKGADVNECDFYGFTAFMEAAVYGKVKALKFLYKRGANVNLRRKTKEDQERLRKGGATALMDAAEKGHVEVLKILLDEMGADVNACDNMGRNALIHALLSSDDSDVEAITHLLLDHGADVNVRGERGKTPLILAVEKKHLGLVQRLLEQEHIEINDTDSDGKTALLLAVELKLKKIAELLCKRGASTDCGDLVMTARRNYDHSLVKVLLSHGAKEDFHPPAEDWKPQSSHWGAALKDLHRIYRPMIGKLKFFIDEKYKIADTSEGGIYLGFYEKQEVAVKTFCEGSPRAQREVSCLQSSRENSHLVTFYGSESHRGHLFVCVTLCEQTLEACLDVHRGEDVENEEDEFARNVLSSIFKAVQELHLSCGYTHQDLQPQNILIDSKKAAHLADFDKSIKWAGDPQEVKRDLEDLGRLVLYVVKKGSISFEDLKAQSNEEVVQLSPDEETKDLIHRLFHPGEHVRDCLSDLLGHPFFWTWESRYRTLRNVGNESDIKTRKSESEILRLLQPGPSEHSKSFDKWTTKINECVMKKMNKFYEKRGNFYQNTVGDLLKFIRNLGEHIDEEKHKKMKLKIGDPSLYFQKTFPDLVIYVYTKLQNTEYRKHFPQTHSPNKPQCDGAGGASGLASPGC
modifications: full-length
- half-life of poly(U) degradation (poly(U); enzyme from reticulocyte lysate bound to 2-5A-cellulose, about 30° C.): about 10 minutes
- ribonuclease activity towards poly(U) (in words) (poly(U); isolated on 2-5A-cellulose): potent ribonuclease activity
- ribonuclease activity against poly(C) (in words) (poly(C)): none
